{"source": "paper PMC3237003", "about": "(Toxins, 2011)", "binders": {"B1": {"name": "sdAb Abr2 (VHH)", "VHH": "DVQLQASGGGLVQAGGSLVLSCTASGRSVSSLAMGWLRQVPGKERELVGSISLSGGRTYYADSMKGRFTISKDNAKNTVALQMNSLRPEDTAVYYCAARDAARDYAPLNFDTWGQGTQVTVSS", "notes": "source: E. coli Rosetta, soluble sdAb expression vector"}, "B2": {"name": "sdAb Abr1 (VHH)", "VHH": "EVQLQASGGGLVQAGGSLRLSCAASGSDGSLEIMGWYRQAPGKQRELVARATSGGLKNYADSVKGRFTISGDLDKNTVYLQMNSLQPEDTGVYVCHLGVVASTYRDYWGQGTQVTVSS", "notes": "as for B1"}, "B3": {"name": "sdAb Abr5 (VHH)", "VHH": "EVQLQASGGGLVQAGGSLRLSCVVSGLSVGLNPVAWYRQAPGQQRDWVARMSMRGLTDYPDSLKGRAIISRDNAKNTVSLQMDSLKPEDTAVYFCKVGLSYWGQGTQVTVSS", "notes": "as for B1"}}, "key": {"[1]": {"target": "bovine serum albumin (BSA) (Bos taurus, UniProt P02769)", "sequence (P02769 25-607)": "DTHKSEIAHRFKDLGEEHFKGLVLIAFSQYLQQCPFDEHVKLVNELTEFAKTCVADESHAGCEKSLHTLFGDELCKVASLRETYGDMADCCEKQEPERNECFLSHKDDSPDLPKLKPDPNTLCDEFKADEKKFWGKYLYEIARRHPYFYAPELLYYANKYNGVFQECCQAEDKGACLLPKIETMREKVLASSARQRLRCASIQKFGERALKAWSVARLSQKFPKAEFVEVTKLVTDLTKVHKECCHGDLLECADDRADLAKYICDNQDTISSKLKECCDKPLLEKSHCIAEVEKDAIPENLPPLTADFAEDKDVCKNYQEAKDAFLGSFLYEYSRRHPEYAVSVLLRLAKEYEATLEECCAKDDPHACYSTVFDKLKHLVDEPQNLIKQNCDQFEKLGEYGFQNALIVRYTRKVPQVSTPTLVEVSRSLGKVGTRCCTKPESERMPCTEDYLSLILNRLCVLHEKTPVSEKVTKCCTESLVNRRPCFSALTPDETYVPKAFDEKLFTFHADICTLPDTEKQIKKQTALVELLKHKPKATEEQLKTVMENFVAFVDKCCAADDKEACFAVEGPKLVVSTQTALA", "assay": "Luminex direct binding (microsphere fluorescence immunoassay)", "settings": "both partners purified"}, "[2]": {"target": "T1, staphylococcal enterotoxin B (SEB) (Staphylococcus aureus, strain , UniProt P01552)", "T1 construct": "source: bought: Toxin Technology, Inc", "T1 sequence (P01552 28-266)": "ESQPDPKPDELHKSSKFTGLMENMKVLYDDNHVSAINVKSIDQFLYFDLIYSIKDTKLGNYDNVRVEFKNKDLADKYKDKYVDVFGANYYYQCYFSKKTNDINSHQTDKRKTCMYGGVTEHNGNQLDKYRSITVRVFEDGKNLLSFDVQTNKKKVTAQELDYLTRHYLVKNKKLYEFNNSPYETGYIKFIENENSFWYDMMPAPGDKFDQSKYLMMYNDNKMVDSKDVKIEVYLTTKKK", "assay": "Luminex direct binding (microsphere fluorescence immunoassay)", "settings": "both partners purified"}}, "data": [{"binder": "B1", "values": [{"measurement": "binding result", "setting": "[1]", "result": "no binding"}, {"measurement": "binding result", "setting": "[2]", "result": "no binding"}]}, {"binder": "B2", "values": [{"measurement": "binding result", "setting": "[1]", "result": "no binding"}, {"measurement": "binding result", "setting": "[2]", "result": "no binding"}]}, {"binder": "B3", "values": [{"measurement": "binding result", "setting": "[1]", "result": "no binding"}, {"measurement": "binding result", "setting": "[2]", "result": "no binding"}]}]}
